According to publication PMC3155532:

Columns and labels:
Settings in all cases: remark: other sources report otherwise
[1] = biological target: 3xflag-LRRK2 (leucine rich repeat kinase 2), wild type (UniProt Q5S007); assay: native gel or EMSA; native PAGE of 3xflag-LRRK2 purified from lysates treated with GDP, GTPγS or GMPPCP (10, 100 and 500 µM, 30 minutes at 30°C); silver stain and flag-M2 immunoblot
[2] = biological target: 3xflag-LRRK2 (leucine rich repeat kinase 2), wild type (UniProt Q5S007); assay: SEC; purified 3xflag-LRRK2 (flag-M2 beads, eluted with 3xflag peptide), Superose 6 10/300 GL, 4°C, SEC running buffer with 10 µM GDP or GTPγS; fractions read by flag-M2 dot blot; higher molecular weight peaks also seen
[3] = biological target: 3xflag-LRRK2 (leucine rich repeat kinase 2), wild type (UniProt Q5S007); assay: SEC; cleared HEK293T cell lysates expressing 3xflag-LRRK2, Superose 6 10/300 GL, 4°C, SEC running buffer (25 mM Tris pH 7.4, 150 mM NaCl, 5 mM MgCl2, 0.02% Triton, 1 mM DTT) with 10 µM GDP or GTPγS; fractions read by flag-M2 dot blot

Measured: stoichiometry N

3xflag-LRRK2 (leucine rich repeat kinase 2), wild type, Q5S007 1-2527
2: all assays above
